Results as given in patent publication US8012471B2, “Screening and treatment methods using IGS5 enzymes of the metalloprotease family” (Abbott Healthcare Products B.V., priority 1999, dated 2011).

Key:
Format in all cases: biochemical
[1] = biological target: T1, ECE-1 (Homo sapiens, UniProt P42892); test: PACAP(1-27) cleavage by recombinantly produced ECE-1; conditions: assay conditions as for IGS5
T1 sequence (P42892 1-770): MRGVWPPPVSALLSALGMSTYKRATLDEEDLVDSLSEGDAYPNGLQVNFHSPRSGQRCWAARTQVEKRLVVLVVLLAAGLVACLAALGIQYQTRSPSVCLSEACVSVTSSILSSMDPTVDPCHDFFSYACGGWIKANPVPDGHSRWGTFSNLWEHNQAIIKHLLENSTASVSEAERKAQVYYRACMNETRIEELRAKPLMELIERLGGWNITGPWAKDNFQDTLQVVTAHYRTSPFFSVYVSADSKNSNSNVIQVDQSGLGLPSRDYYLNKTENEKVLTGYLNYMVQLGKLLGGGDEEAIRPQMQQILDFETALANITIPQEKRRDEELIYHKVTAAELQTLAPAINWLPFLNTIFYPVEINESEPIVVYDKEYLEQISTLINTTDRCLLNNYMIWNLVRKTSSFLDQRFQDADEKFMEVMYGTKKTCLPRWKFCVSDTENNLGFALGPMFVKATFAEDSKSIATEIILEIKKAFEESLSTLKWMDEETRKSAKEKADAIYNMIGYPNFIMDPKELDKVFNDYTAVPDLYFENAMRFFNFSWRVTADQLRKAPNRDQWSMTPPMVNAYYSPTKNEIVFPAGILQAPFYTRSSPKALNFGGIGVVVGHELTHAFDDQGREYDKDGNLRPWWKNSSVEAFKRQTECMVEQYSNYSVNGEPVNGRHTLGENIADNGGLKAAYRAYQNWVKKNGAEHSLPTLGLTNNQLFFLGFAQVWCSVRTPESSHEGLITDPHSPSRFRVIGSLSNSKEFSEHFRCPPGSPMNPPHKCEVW
Experimental: (§1) A quantity of 80 μl of the assay buffer, 10 μl of enzyme working solution (5 μg/ml) and 10 μl of substrate stock solution (PACAP(1-27)) were mixed in an Eppendorf vial and incubated for 120 min. at 37° C. The enzymatic reaction was subsequently terminated by heating to 95° C. for 5 min. After centrifugation (Heraeus Biofuge B, 3 min) the supernatant was subjected to HPLC
(§2) In addition, it was also analysed whether PACAP(1-27) is cleaved by other recombinantly produced metalloproteases of the M13 family, such as NEP, ECE-1 and XCE/DINE. […] The data summarized herein indicate that PACAP(1-27) might be the physiologically relevant substrate of hSEP.

[2] = biological target: NEP (Homo sapiens, UniProt P08473); test: PACAP(1-27) cleavage by recombinantly produced NEP; conditions: assay conditions as for IGS5
Sequence of NEP (P08473 whole entry): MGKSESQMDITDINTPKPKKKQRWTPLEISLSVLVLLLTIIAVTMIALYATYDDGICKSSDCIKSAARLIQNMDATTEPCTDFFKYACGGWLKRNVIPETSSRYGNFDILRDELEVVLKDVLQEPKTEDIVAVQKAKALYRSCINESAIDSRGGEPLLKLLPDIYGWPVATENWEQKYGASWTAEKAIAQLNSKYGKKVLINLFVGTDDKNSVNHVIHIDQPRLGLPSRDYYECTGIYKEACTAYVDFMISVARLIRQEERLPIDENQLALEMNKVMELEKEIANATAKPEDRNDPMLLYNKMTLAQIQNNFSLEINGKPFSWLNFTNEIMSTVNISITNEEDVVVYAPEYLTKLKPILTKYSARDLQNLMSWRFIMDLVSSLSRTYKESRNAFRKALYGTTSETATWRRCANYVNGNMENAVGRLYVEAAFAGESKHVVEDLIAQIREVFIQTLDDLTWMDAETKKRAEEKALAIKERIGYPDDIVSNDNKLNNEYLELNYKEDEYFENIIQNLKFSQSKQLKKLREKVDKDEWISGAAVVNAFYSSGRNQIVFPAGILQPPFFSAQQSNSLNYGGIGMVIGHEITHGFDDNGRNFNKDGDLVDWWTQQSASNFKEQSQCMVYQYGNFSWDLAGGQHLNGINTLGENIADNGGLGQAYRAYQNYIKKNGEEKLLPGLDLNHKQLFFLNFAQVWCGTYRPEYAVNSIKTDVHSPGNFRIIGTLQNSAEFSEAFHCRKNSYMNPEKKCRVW
Experimental: as §1, §2

[3] = biological target: T2, IGS5 polypeptide (His6-tagged IGS5 ectodomain) (Homo sapiens, UniProt Q495T6, V306M); test: Hydrolysis of vasoactive peptides and PACAP(1-27) by IGS5 polypeptide (HPLC); conditions: 100 μl assay volume; 100 ng IGS5 polypeptide; 0.5 μM substrate; 2 h, 37° C.
T2 construct: made in house; host or cells: Spodoptera frugiperda Sf9 (baculovirus IGBV73)
T2 sequence (Q495T6 with tags, fused parts or gaps V306M): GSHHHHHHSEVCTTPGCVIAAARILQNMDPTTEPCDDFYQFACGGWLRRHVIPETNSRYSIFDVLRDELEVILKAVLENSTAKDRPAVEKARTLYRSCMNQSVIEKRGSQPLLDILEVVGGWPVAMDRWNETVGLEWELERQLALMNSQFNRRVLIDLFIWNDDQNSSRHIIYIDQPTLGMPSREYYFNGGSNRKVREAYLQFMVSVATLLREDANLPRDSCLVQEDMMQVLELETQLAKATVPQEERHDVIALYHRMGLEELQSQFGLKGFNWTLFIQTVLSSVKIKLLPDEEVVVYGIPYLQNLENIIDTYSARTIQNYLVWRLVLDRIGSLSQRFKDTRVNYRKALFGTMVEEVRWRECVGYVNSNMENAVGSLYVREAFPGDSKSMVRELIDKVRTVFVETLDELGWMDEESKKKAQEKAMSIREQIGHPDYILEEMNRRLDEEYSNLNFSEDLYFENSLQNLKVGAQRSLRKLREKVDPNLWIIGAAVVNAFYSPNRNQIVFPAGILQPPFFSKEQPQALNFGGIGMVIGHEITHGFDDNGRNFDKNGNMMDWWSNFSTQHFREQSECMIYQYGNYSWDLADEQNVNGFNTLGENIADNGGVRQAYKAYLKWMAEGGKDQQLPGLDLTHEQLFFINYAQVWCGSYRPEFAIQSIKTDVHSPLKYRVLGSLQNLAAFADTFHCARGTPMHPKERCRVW
Experimental: The enzymatic activity of IGS5 polypeptides of the invention was tested with regard to the metabolism of biologically active peptides. In particular it was tested whether these IGS5 polypeptides may act on a variety of vasoactive peptides known in the state of the art e.g. such like atrial natriuretic peptide (ANP), bradykinin, big endothelin (Big ET-1), endothelin (ET-1), substance P and angiotensin-1. In the context of the present invention in particular it was tested whether the IGS5 ectodomain, which is a novel human metalloprotease, hydrolyzes said vasoactive peptides. For comparison the assay was also performed for a known member of the metalloprotease family which was described earlier as soluble secreted endopeptidase (SEP) by Ikeda, Emoto et al. (J. Biol. Chem., Vol. 274 (1999): pp. 32469-32477). Furthermore, it was tested whether the activity of IGS5 to convert a Big-ET-1 analogue (the so-called 17 aa Big-ET) may be inhibited by reference compounds that are used to determine the inhibition properties with regard to enzymes having ECE and/or NEP-characteristics. […] It was then checked whether the activity of IGS5 to convert PACAP(1-27) may be inhibited by a compound known to be a IGS5 inhibitor. The compound used to test the inhibition of IGS5-activity on PACAP(1-27) was the active metabolite of (3S,2′R)-3-{1-[2′-(ethoxycarbonyl)-4′-phenylbutyl]-cyclopentane-1-carbonylamino}-2,3,4,5-tetrahydro-2-oxo-1H-1-benzazepine-1-acetic acid (compound Ia-2 from WO 02/094176).
The enzymatic reaction was subsequently terminated by heating to 95° C. for 5 min. After centrifugation (Heraeus Biofuge B, 3 min) the supernatant was subjected to HPLC
In order to separate the remaining substrate from the cleavage products reversed phase HPLC technique was used with a CC 125/4 Nucleosil 300/5 C18 RP column and a CC 8/4 Nucleosil 100/5 C18 precolumn (commercially available from Macherey-Nagel, Duren, Germany). Thus, 60 μl of the reaction samples obtained in Example 7B were injected into the HPLC, and the column was eluted at a flow rate of 1 ml/min by applying the following gradient and solutions: […]
Peptides were detected by absorbance at 214 nm (UV spectroscopy) and/or by fluorescence with an excitation wavelength of 328 nm and an emission wavelength of 393 nm.
% Hydrolysis: For detection of substrate cleavage, the percentage of hydrolysis was calculated by directly comparing the substance peak areas in HPLC traces of the sample without addition of any IGS5 enzyme activity (blank) and of the samples with addition of IGS5 enzyme (sample). % hydrolysis was calculated on basis of the respective peak areas. % hydrolysis=100*(1−(Asample/Ablank))

[4] = biological target: T3, XCE/DINE (Homo sapiens, UniProt O95672); test: PACAP(1-27) cleavage by recombinantly produced XCE/DINE; conditions: assay conditions as for IGS5
T3 sequence (O95672 1-775): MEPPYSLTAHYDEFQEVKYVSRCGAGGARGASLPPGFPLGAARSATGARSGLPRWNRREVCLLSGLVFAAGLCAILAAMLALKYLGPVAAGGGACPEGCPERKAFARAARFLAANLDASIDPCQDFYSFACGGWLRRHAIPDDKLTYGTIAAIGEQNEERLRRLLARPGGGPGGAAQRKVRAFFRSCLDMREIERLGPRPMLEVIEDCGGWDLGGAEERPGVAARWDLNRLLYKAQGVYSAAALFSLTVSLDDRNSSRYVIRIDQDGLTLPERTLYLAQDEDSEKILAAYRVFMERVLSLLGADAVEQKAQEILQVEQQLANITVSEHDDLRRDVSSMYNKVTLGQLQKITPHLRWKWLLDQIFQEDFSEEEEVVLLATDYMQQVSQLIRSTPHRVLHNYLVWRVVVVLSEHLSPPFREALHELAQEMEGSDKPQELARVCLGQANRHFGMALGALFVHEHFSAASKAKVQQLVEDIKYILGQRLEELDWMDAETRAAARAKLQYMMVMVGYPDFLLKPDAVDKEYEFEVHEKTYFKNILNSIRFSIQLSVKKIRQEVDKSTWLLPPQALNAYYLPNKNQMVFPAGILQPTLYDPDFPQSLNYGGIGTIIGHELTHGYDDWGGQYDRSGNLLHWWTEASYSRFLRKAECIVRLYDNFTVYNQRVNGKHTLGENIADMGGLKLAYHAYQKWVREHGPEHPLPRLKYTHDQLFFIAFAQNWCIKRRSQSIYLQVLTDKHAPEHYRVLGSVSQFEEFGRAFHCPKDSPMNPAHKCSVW
Experimental: as §1, §2

Substance: His-Ser-Asp-Gly-Ile-Phe-Thr-Asp-Ser-Tyr-Ser-Arg-Tyr-Arg-Lys-Gln-Met-Ala-Val-Lys-Lys-Tyr-Leu-Ala-Ala-Val-Leu [PACAP (1-27)]
- Cleavage of PACAP(1-27) by ECE-1 [1]: None of the aforementioned enzymes was able to cleave
- Cleavage of PACAP(1-27) by NEP [2]: None of the aforementioned enzymes was able to cleave
- % Hydrolysis by IGS5 Polypeptide [3]: 69%
- Cleavage of PACAP(1-27) by XCE/DINE [4]: None of the aforementioned enzymes was able to cleave
